Assay results: US20140212436A1 (Xencor, published 2014)

Key:
[1] = target: T1, recombinant human FcγRIIb protein (human, UniProt P31994 46-217); assay: Biacore, antibody captured on protein A
T1 construct: Bought; injected as analyte in Biacore; also called CD32b
T1 sequence (looked up): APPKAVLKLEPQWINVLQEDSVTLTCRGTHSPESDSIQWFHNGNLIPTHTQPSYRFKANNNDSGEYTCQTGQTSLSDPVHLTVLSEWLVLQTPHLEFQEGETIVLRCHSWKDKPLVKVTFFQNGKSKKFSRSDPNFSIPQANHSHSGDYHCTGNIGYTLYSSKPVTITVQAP
Description: (§1) Variants were tested for receptor affinity using Biacore technology, also referred to as Biacore herein, a surface plasmon resonance (SPR) based technology for studying biomolecular interactions in real time. SPR measurements were performed using a Biacore 3000 instrument (Biacore, Piscataway, N.J.). A […] (Pierce Biotechnology) CM5 biosensor chip (Biacore) was generated using a standard primary amine coupling protocol. All measurements were performed using HBS-EP buffer (10 mM HEPES pH 7.4, 0.15 M NaCl, 3 mM EDTA, 0.005% vol/vol surfactant P20, Biacore). Antibodies at 20 nM or 50 nM in HBS-EP buffer were immobilized on the protein A/G surface and FcγRs were injected. After each cycle, the surface was regenerated by injecting glycine buffer (10 mM, pH 1.5). Data were processed by zeroing time and response before the injection of FcγR and by subtracting appropriate nonspecific signals (response of reference channel and injection of running buffer). Kinetic analyses were performed by global fitting of binding data with a 1:1 Langmuir binding model using BIAevaluation software (Biacore).
(§2) DNA encoding the Fc region of IgE, which contains the binding site for the anti-IgE antibodies used, was synthesized (Blue Heron Biotechnologies) and subcloned into the pTT5 vector. […] SPR measurements were performed using the protein A/antibody capture method described above, except that analyte was either FcγRIIb or the Fc region of IgE. Data acquisition and fitting are as described above.

[2] = target: T1, recombinant human FcγRIIb protein; assay: Biacore
Description: as §1
DNA encoding the Fc region of IgE, which contains the binding site for the anti-IgE antibodies used, was synthesized (Blue Heron Biotechnologies) and subcloned into the pTT5 vector. […]

Fc region of IgE = target: T2, Fc region of IgE (UniProt P01854-1 105-428, limits assumed); assay: Biacore, antibody captured on protein A, IgE Fc as analyte
T2 construct: domain: Fc region of IgE; also called IgE Fc
T2 sequence (P01854 other isoform, or with tags, fused parts or gaps limits assumed): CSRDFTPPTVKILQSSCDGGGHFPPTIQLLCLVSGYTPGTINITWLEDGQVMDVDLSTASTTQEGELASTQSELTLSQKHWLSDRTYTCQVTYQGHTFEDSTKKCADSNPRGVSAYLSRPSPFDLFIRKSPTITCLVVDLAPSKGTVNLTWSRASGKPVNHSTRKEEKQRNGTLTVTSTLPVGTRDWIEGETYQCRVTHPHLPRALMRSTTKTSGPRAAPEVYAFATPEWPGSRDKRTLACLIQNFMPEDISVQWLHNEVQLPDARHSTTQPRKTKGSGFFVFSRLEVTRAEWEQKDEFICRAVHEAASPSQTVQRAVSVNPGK
Description: as §1, §2

B1: H1L1_MaE11 (novel humanized version of MaE11, anti-IgE antibody) (antibody)
heavy: not shown
light: DIQLTQSPSSLSASVGDRVTITCRASQSVDYDGDSYMNWYQQKPGQPPKLLIYAASYLGSEIPARFSGSGSGTDFTLTISSLQPEDFATYYCQQSHEDPYTFGAGTKLEIKRTVAAPSVFIFPPSDEQLKSGTASVVCLLNNFYPREAKVQWKVDNALQSGNSQESVTEQDSKDSTYSLSSTLTLSKADYEKHKVYACEVTHQGLSSPVTKSFNRGEC
notes: copies: 2 + 2
[1]
  Kd: 2000 nM
[2]
  Fold: 1
Fc region of IgE
  Kd: 0.061 nM

B2: MaE11_H1L1_IgG1_G236R/L328R (antibody)
heavy: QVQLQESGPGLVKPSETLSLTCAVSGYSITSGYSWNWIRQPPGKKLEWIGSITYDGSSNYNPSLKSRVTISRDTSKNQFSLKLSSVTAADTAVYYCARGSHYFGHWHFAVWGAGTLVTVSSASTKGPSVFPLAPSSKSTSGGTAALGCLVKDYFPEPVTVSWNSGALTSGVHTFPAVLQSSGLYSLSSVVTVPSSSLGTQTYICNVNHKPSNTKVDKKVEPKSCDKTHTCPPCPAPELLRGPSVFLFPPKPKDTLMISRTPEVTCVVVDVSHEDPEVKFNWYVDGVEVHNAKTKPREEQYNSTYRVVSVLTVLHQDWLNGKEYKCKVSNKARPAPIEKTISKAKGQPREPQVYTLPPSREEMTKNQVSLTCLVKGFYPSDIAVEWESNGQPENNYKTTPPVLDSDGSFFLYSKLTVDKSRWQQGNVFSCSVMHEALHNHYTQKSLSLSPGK
light: DIQLTQSPSSLSASVGDRVTITCRASQSVDYDGDSYMNWYQQKPGQPPKLLIYAASYLGSEIPARFSGSGSGTDFTLTISSLQPEDFATYYCQQSHEDPYTFGAGTKLEIKRTVAAPSVFIFPPSDEQLKSGTASVVCLLNNFYPREAKVQWKVDNALQSGNSQESVTEQDSKDSTYSLSSTLTLSKADYEKHKVYACEVTHQGLSSPVTKSFNRGEC
notes: anti-IgE; also called H1L1 MaE11 Fc-KO
[1]
  binding result: no binding
Fc region of IgE
  Kd: 0.064 nM

B3: MaE11_H1L1_IgG1_S267E/L328F (antibody)
heavy: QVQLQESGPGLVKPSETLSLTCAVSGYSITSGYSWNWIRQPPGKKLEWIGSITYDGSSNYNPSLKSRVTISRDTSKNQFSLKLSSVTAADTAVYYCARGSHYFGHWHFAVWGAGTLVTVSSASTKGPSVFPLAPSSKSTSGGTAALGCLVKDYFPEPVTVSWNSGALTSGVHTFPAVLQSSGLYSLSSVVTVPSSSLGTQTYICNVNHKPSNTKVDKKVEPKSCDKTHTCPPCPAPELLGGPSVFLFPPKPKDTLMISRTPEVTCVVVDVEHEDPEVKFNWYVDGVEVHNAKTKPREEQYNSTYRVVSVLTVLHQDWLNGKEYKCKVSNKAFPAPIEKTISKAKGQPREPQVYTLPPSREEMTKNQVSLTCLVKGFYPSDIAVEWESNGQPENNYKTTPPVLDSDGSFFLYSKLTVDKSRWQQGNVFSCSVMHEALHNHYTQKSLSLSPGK
light: DIQLTQSPSSLSASVGDRVTITCRASQSVDYDGDSYMNWYQQKPGQPPKLLIYAASYLGSEIPARFSGSGSGTDFTLTISSLQPEDFATYYCQQSHEDPYTFGAGTKLEIKRTVAAPSVFIFPPSDEQLKSGTASVVCLLNNFYPREAKVQWKVDNALQSGNSQESVTEQDSKDSTYSLSSTLTLSKADYEKHKVYACEVTHQGLSSPVTKSFNRGEC
notes: anti-IgE
[1]
  Kd: 5.6 nM
[2]
  Fold: 366
Fc region of IgE
  Kd: 0.063 nM
